pKd: −log10 of the molar value.
Experiments:
[1] = biological target: VsCoV-a7 RBD-human IgG Fc fusion (VsCoV-a7 (bat MERSr-CoV from Vespertilio sinensis, Japan)); assay: BLI
[2] = biological target: HsItaly2011 RBD-human IgG Fc fusion (HsItaly2011 (bat MERSr-CoV from Hypsugo savii, Italy)); assay: BLI

Work on “soluble dimeric E.fus ACE2 ectodomain (domain or fragment)” yielded a pKd [1] of 6.09.
“soluble dimeric R.nor ACE2 ectodomain (from UniProt Q5EGZ1 18-740) (domain or fragment)” gave a pKd [2] of 6.92.
